# B1: Spp1 (natural protein, S. cerevisiae, UniProt Q03012 1-353, looked up)
# chain: MSLPQWCPPHSTLKRNPTTGEDVYCICKRPDYGELMVGCDGCDDWFHFTCLHIPEQFKDLVFSFYCPYCQAGITGKNKDAIINGEGSLPKTLWKRKCRISDCYKPCLQDSKYCSEEHGREFVNDIWSRLKTDEDRAVVKKMVEQTGHIDKFKKFGQLDFIDNNIVVKTDDEKEIFDQIVVRDMTLKTLEDDLQEVQEISLPLFKKKLELLEVYLGWLDNVYTEMRKLDDDAASHVECGKEDSKGTKRKKKKNSSRSRARKNICGYCSTYERIPCSVEEFVRDFGSNEEATKIHEVCTKWKCNRHLDWVSTNQEQYLQQIDSLESMQERLQHLIQARKKQLNIQYYEEILRRGL
# B2: Swd3 (natural protein, S. cerevisiae, UniProt P38123 1-315, looked up)
# chain: MFQFVTPVGTQNGLKATCAKISPDGQFLAITQGLNILIYDINRRTVSQTLVTSHARPFSELCWSPDGQCIATASDDFSVEIIHLSYGLLHTFIGHTAPVISLTFNRKGNLLFTSSMDESIKIWDTLNGSLMKTISAHSEAVVSVDVPMNDSSILSSGSYDGLIRIFDAETGHCLKTLTYDKDWKRENGVVPISQVKFSENARYLLVKSLDGVVKIWDCIGGCVVRTFQVQPLEKGVLHHSCGMDFLNPEDGSTPLVISGYENGDIYCWNSDTKSLLQLLDGSLYHHSSPVMSIHCFGNIMCSLALNGDCCLWRWV
# B3: GST-n-SET (Set1 residues 762–937) (domain or fragment, S. cerevisiae, UniProt P38827 762-937, looked up)
# chain: MDLQNAIKDEEDMLILKQLLSTYTPTVTPETSAALEYKIWQSRRKVLEEEKASDWQIELNGTLFDSELQPGSSFKAEGFRKIADKLKINYLPHRRRVHQPLNTVNIHNERNEYTPELCQREESSNKEPSDSVPQEVSSSRDNRASNRRFQQDIEAQKAAIGTESELLSLNQLNKRK
# B4: Shg1 (natural protein, S. cerevisiae, UniProt P38337 1-142, looked up)
# chain: MAYNQEDSKRLSDKYKKEGHFDKLKREILSNPWNNTEENSESFEQALRKRVASTVKEMVNEDEELIFKNRGLTSALIESQLVKDNYLKLGSKMEGDNGDGEKKFDLDVYVRSKLQDPKLLEMIKGQLQETLNSYEEEANGST
# B5: FLAG-Shg1 (purified) (natural protein, S. cerevisiae, UniProt P38337 1-142, looked up)
# chain: MAYNQEDSKRLSDKYKKEGHFDKLKREILSNPWNNTEENSESFEQALRKRVASTVKEMVNEDEELIFKNRGLTSALIESQLVKDNYLKLGSKMEGDNGDGEKKFDLDVYVRSKLQDPKLLEMIKGQLQETLNSYEEEANGST
# B6: Swd2 (natural protein, S. cerevisiae, UniProt P36104 1-329, looked up)
# chain: MTTVSINKPNLLKFKHVKSFQPQEKDCGPVTSLNFDDNGQFLLTSSSNDTMQLYSATNCKFLDTIASKKYGCHSAIFTHAQNECIYSSTMKNFDIKYLNLETNQYLRYFSGHGALVNDLKMNPVNDTFLSSSYDESVRLWDLKISKPQVIIPSLVPNCIAYDPSGLVFALGNPENFEIGLYNLKKIQEGPFLIIKINDATFSQWNKLEFSNNGKYLLVGSSIGKHLIFDAFTGQQLFELIGTRAFPMREFLDSGSACFTPDGEFVLGTDYDGRIAIWNHSDSISNKVLRPQGFIPCVSHETCPRSIAFNPKYSMFVTADETVDFYVYDE
# B7: Swd1 (natural protein, S. cerevisiae, UniProt P39706 1-426, looked up)
# chain: MNILLQDPFAVLKEHPEKLTHTIENPLRTECLQFSPCGDYLALGCANGALVIYDMDTFRPICVPGNMLGAHVRPITSIAWSPDGRLLLTSSRDWSIKLWDLSKPSKPLKEIRFDSPIWGCQWLDAKRRLCVATIFEESDAYVIDFSNDPVASLLSKSDEKQLSSTPDHGYVLVCTVHTKHPNIIIVGTSKGWLDFYKFHSLYQTECIHSLKITSSNIKHLIVSQNGERLAINCSDRTIRQYEISIDDENSAVELTLEHKYQDVINKLQWNCILFSNNTAEYLVASTHGSSAHELYIWETTSGTLVRVLEGAEEELIDINWDFYSMSIVSNGFESGNVYVWSVVIPPKWSALAPDFEEVEENVDYLEKEDEFDEVDEAEQQQGLEQEEEIAIDLRTREQYDVRGNNLLVERFTIPTDYTRIIKMQSS
# B8: GST-Set1 fragment, residues 1–229 (domain or fragment, S. cerevisiae, UniProt P38827 1-229, looked up)
# chain: MSNYYRRAHASSGSYRQPQEQPQYSRSGHYQYSNGHSHQQYSSQYNQRRRYNHNDGTRRRYNDDRPHSSNNASTRQYYATNNSQSGPYVNKKSDISSRRGMSQSRYSNSNVHNTLASSSGSLPTESALLLQQRPPSVLRYNTDNLKSKFHYFDPIKGEFFNKDKMLSWKATDKEFSETGYYVVKELQDGQFKFKIKHRHPEIKASDPRNENGIMTSGKVATHRKCRNSL
# How the values were obtained:
# FLAG-Set1 (full length) [1] = target: T1, FLAG-Set1 (full length) (S. cerevisiae, UniProt P38827 1-1080); assay: SEC
# T1 sequence (looked up): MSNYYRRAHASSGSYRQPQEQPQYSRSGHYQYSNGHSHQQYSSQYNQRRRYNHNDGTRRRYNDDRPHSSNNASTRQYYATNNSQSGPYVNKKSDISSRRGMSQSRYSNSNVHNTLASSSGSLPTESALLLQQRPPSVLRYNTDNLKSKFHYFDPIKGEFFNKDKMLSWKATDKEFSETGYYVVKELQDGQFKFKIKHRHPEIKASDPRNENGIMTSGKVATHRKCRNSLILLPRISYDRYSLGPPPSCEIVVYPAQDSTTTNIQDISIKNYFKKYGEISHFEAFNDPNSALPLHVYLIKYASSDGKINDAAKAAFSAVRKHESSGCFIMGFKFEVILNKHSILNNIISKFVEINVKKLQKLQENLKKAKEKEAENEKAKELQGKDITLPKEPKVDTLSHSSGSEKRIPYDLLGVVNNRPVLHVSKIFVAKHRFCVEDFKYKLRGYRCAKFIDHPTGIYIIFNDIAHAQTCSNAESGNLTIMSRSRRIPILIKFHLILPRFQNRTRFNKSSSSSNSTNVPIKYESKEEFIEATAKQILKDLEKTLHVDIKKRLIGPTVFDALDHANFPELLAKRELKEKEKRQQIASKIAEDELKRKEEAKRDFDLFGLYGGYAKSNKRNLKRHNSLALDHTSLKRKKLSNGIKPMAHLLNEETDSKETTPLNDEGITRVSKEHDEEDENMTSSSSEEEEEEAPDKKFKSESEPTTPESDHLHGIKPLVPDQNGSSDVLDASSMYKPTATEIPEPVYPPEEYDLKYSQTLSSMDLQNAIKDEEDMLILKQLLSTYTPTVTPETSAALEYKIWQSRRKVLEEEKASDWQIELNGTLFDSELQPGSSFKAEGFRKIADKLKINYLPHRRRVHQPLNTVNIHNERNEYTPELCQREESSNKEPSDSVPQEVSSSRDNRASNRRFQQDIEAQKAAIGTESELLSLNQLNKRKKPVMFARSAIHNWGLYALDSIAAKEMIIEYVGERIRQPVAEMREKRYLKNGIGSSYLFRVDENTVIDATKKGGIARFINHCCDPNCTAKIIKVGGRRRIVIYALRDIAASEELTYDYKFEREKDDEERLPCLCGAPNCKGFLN
# FLAG-Set1 (full length) [2] = target: T1, FLAG-Set1 (full length); assay: affinity co-purification by the FLAG tag
# FLAG-Spp1 (purified) = target: T2, FLAG-Spp1 (purified) (S. cerevisiae, UniProt Q03012 1-353); assay: pull-down
# T2 sequence (looked up): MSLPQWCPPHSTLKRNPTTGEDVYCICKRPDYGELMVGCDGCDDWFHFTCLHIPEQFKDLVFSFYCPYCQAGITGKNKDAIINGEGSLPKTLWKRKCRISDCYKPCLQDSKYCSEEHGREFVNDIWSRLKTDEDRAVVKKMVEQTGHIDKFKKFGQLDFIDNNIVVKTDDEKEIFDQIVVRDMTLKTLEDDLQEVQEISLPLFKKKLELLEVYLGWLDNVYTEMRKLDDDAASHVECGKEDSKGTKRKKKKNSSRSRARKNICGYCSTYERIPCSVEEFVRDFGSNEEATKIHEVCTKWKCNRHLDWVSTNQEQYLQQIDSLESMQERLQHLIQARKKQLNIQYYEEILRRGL
# [3] = target: T3, GST-Set1 fragment, residues 356–568 (S. cerevisiae, UniProt P38827 356-568); assay: pull-down
# T3 sequence (looked up): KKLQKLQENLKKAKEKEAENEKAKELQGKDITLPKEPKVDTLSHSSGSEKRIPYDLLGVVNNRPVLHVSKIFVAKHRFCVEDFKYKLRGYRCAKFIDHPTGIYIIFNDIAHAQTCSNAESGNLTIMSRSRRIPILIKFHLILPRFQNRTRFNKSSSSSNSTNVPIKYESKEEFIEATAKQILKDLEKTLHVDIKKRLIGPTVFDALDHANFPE
# FLAG-Set1 (full length) [4] = target: T1, FLAG-Set1 (full length); assay: affinity co-purification by the FLAG tag; remark: listed apart in the source
# FLAG-Swd2 (purified) = target: T4, FLAG-Swd2 (purified) (S. cerevisiae, UniProt P36104 1-329); assay: pull-down
# T4 sequence (looked up): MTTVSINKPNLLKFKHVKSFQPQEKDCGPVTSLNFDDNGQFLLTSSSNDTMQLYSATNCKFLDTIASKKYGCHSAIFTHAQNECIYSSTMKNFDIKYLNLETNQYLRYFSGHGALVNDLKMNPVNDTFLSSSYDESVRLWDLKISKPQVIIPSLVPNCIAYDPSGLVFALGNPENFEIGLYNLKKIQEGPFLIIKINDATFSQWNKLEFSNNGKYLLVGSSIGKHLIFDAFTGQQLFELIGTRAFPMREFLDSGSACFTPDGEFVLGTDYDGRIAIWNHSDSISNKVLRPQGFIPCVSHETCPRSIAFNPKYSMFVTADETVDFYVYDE
binder,measurement,setting,value
B1,binding result,FLAG-Set1 (full length) [1],binds
B2,binding result,FLAG-Set1 (full length) [2],binds
B3,binding result,FLAG-Spp1 (purified),binds
B4,binding result,FLAG-Set1 (full length) [1],binds
B5,binding result,[3],binds
B6,binding result,FLAG-Set1 (full length) [1],binds
B7,binding result,FLAG-Set1 (full length) [4],binds
B8,binding result,FLAG-Swd2 (purified),binds
